Substitutions are numbered along the chain they refer to.
T1: human C5a (source not stated) (human, UniProt P01031 678-751)
T1 sequence: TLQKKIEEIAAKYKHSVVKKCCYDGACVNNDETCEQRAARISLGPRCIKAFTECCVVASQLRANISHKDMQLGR

B1: Cab20 scFv (scFv, V domains shown)
VH: EVQLVESGGGLVQPGGSLKVSCAASGFTFRDYYMQWVRQAPGKGPEWVGLIRNKAIGETAEYAASVKGRFTISRDDSKSIVYLQMSSLKTEDTAVYYCTSRAGPPGLSWGQGVLVTVSS
VL: DIVMIQNPLSLPVTPGEPASISCRSSQSLLHSDGYTYLDWYLQKPGQSPQLLIYGGSNRASGVPDRFSGSGSGTDFTLKISKVEAEDVGVYYCMQHKVLPLTFAGGTKLEIK
B2: Cab10 scFv (scFv, V domains shown)
VH: QVQLVESGGGLVQPGGSLKVSCAASGFIFSDYYMQWVRQAPGKGPEWVGLIRKKVNGGTTEYAASVKGRFTISRDDSKSIVYLQMSSLKIEDTAVYYCVSRAGPPGLTWGQGVLITVSS
VL: B1 VL with I2T, I5S, N7I, S32T, T36I, V98A, A104G
B3: Cab14 scFv (scFv, V domains shown)
VH: VVQLVESGGGLVQPGGSLKVSCATSGFTFSDYYMQWVRQAPGKGPEWLGLIRNKAIGGTTQYAASVKGRFTISRDDSKGIAYLQMSSLKTEDTAVYYCVCRAGPPGLSWGQGVLVTVSS
VL: B1 VL with V3E, M4L, I5T, N7T, L11R, S32T, V98A, A104G
B4: Cab06 scFv (scFv, V domains shown)
VH: B2 VH with Q1E, Q3H, I115V, V117I
VL: B1 VL with H31A, T36N, L38M, Q50K, L51V, S81T, V90I, L101P, A104G, G105Q
B5: Cab09 scFv (scFv, V domains shown)
VH: B2 VH with Q1E, V81A, I115V, V117I
VL: B1 VL with N7T, L38V, L51I, S81T, K82N, M94L, V98A, L101P, A104G, G105Q
B6: Cab11 scFv (scFv, V domains shown)
VH: EVQLVESGGGLVQPGGSLRVSCAASGFRFSDFYMQWVRQAPGKRPEWVGLIRNKPYGGTAEYAASVKGRFTISRDDSKSVTDLQMSSLKTEDTAIYYCVMRNNGYHWGQGVLVTISS
VL: B1 VL with I2A, I5T, N7I, S32T, V98A, L101P, A104G
B7: Cab29 scFv (scFv, V domains shown)
VH: B1 VH with E1D, V2M, R30S, I56V, E58G, A60T, E61Q, Q84E, T99V
VL: DIVMIQNPLSLSVSLGEPASISCRSSQSLLATDGYEYLDWYLQKPGQSPQILIYGASNRASGVPDRFSGRGSGTDFTLKITKVEAEDVGVYYCLQHKALPPTFGQGTKLEIK
B8: Cab28 scFv (scFv, V domains shown)
VH: B1 VH with E1D, V2M, R30S, I56V, E58G, A60T, E61Q, Q84E, T99V
VL: DIVMIQNPLSLPVTPGEPASISCRSSQNLLATDGYTYLDWYLQKPGQSPQVLIYGGSKRASGVPDRFSGSGSGTDFTLKISKVEAEDVGIYYCLQHRALPPTFGQGTKLEIK
B9: Cab08 scFv (scFv, V domains shown)
VH: EVQLVESGGGLIQPGGSLRVSCAASGFTFSDYYLQWVRQAPGKGPEWVGLIRTKRYGGTSEYAASVKGRYTISRDDSKAIAYLQMSSLKTEDTAVYYCVVRIFTGLHWGKGTPVTVSS
VL: B1 VL with I5T, N7T, L11R, S32T, V98A, A104G
B10: Cab30 scFv (scFv, V domains shown)
VH: B1 VH with E1D, V2M, R30S, I56V, E58G, A60T, E61Q, Q84E, T99V
VL: B1 VL with I5T, N7T, K44R, Q50H, L101P, A104G, G105Q
B11: Cab16 scFv (scFv, V domains shown)
VH: B1 VH with Q3H, R30S, A60T, T90P, T99A, S100G, A102L
VL: B1 VL with I2A, I5T, N7I, S32T, V98A, A104G, K108R
B12: Cab07 scFv (scFv, V domains shown)
VH: B1 VH with E1D, R30S, A60T, T99V, V117I
VL: DTVMTQIPLSLSVTPGEPASISCRSSQRLLHTDGYTYLDWYHQKPGQSPQLLIYGGSNRASGVPDRFSGSGSVTDFTLKISKMEAEDVGVYYCMQHKALPPTFGGGTKLEIK
B13: Cab12 scFv (scFv, V domains shown)
VH: B1 VH with E1V, R30S, A60T, E61Q, T99V, V117I
VL: B1 VL with M4L, I5T, N7T, S28R, L38M, L51I, V98A, L101P, A104G, G105Q
B14: Cab02 scFv (scFv, V domains shown)
VH: B2 VH with Q1E, V81A, I115V, V117I
VL: B1 VL with N7T, S28R, V98A, A104G
B15: Cab31 scFv (scFv, V domains shown)
VH: B1 VH with E1D, V2M, R30S, I56V, E58G, A60T, E61Q, Q84E, T99V
VL: B1 VL with I2T, I5S, N7I, L38M, L101P, A104G, G105Q, K108R
B16: Cab27 scFv (scFv, V domains shown)
VH: B1 VH with E6Q, E58G, A60T, E61Q, T99V
VL: DAVMTQTPLSLPVTPGEPASISCRSSQSLLASDGYNYIDWYLQRPGQSPKVLIYGGSNRASGVPDRFSGSGSGTYFTLKISKVEAEDVGFYFCLQHRALPPTFGQGTKLEIK
B17: Cab17 scFv (scFv, V domains shown)
VH: VVQLVESGGGLVLPGGSLKVSCAASGFIFSDYYIQWVRQAPGKGPEWVGLIRNKAVGETVQYAASLKGRFTISRDDSKSIAYLQMTSLKTEDTAMYYCVSRAGPPGLTWGQGVLVTVSS
VL: B8 VL with P12S, N28R, T32S, L38V, V51I, K58N, I90V, L94M, R97K
B18: Cab22 scFv (scFv, V domains shown)
VH: VVQLVESGGGLVQPGGSLKVSCTASGFIFNDYYMQWVRQAPGKGPEWVGLIRNKANGGTTEYAASVKGRFTISRDDSKSIVYLQMSSLKTEDTAVYFCTGRLGPPGLTWGQGVLVTISS
VL: B16 VL
B19: Cab40 (reformatted as human IgG1) (antibody, V domains shown)
VH: EMQLVESGGGLVQPGGSLRLSCAASGFTFSDYYMQWVRQAPGKGPEWVGLIRNKAVGQTTQYAASVKGRFTISRDDSKNSVYLQMNSLKTEDTAVYYCVSRAGPPGLSWGQGVLVTVSS
VL: B16 VL with A2I, T7S, R44K, K50Q, V51L, Y75D, K82R, F90V
B20: Cab23 scFv (scFv, V domains shown)
VH: EVQLVESGGGLVQPGGSLRLSCAASGFTFSDYYIQWVRQAPGKGPEWVGLIRNKAIGGTVEYAASVKGRFTISRDDSKRIAYLQMRSLKTEDTAVYFCTGRVGPPGLTWGQGVLVTISS
VL: B16 VL
B21: Cab39 (reformatted as human IgG1) (antibody, V domains shown)
VH: B19 VH with Q58I
VL: B16 VL with A2I, T7S, R44K, K50Q, V51L, Y75D, K82R, F90V
B22: Cab25 scFv (scFv, V domains shown)
VH: EVQLVESGGGFVQPGGSLKVSCVASGFTFSDYYIQWVRQAPGKGPEWVGLIRNKAVGGTTTYAASVKGRFTISRDDSKSVAYLQMTSLKTEDTAVYFCVSRAGPPGLSWGQGVLVTISS
VL: B16 VL
B23: Cab32 (reformatted as human IgG1) (antibody, V domains shown)
VH: B19 VH with Q58G
VL: B16 VL with A2I, T7S, N36I, R44K, K50Q, V51L, Y75D, K82R, F90V
B24: Cab33 (reformatted as human IgG1) (antibody, V domains shown)
VH: B19 VH with Q58G
VL: B16 VL with A2I, T7S, R44K, K50Q, V51L, Y75D, K82R, F90V, R97K
B25: Cab26 scFv (scFv, V domains shown)
VH: B17 VH with V1E, V117I
VL: B16 VL
B26: Cab41 (reformatted as human IgG1) (antibody, V domains shown)
VH: B19 VH with Q58R
VL: B16 VL with A2I, T7S, R44K, K50Q, V51L, Y75D, K82R, F90V
B27: Cab34 (reformatted as human IgG1) (antibody, V domains shown)
VH: B19 VH with Q58G, Q61E
VL: B16 VL with A2I, T7S, R44K, K50Q, V51L, Y75D, K82R, F90V
B28: Cab24 scFv (scFv, V domains shown)
VH: B2 VH with Q1V, T108A, I115V, V117I
VL: B16 VL

Target: T1, human C5a (source not stated)
Assay: cell-based or functional assay

| Binder | ROS IC50 [nM] |
| --- | --- |
| B1 | 0.81 |
| B2 | 2.02 |
| B3 | 1.2 |
| B4 | 1.03 |
| B5 | 1.54 |
| B6 | 1.57 |
| B7 | 0.96 |
| B8 | 0.98 |
| B9 | 1.29 |
| B10 | 1.18 |
| B11 | 0.87 |
| B12 | 1.07 |
| B13 | 1.22 |
| B14 | 1.67 |
| B15 | 1.26 |
| B16 | 1.21 |
| B17 | 1.87 |
| B18 | 0.91 |
| B19 | 0.7 |
| B20 | 0.92 |
| B21 | 0.91 |
| B22 | 0.54 |
| B23 | 1.76 |
| B24 | 1.7 |
| B25 | 1.13 |
| B26 | 0.7 |
| B27 | 1.61 |
| B28 | 1.44 |

From patent US20230257454A1 (STAIDSON BEIJING BIOPHARMACEUTICALS, published 2023)
